Experimental data from patent US20230374148A1, “BINDING MOLECULES THAT MULTIMERISE CD45” (UCB BIOPHARMA SRL, priority 2020, published 2023).

B1: 4133-6294 BYbe: anti-CD45 BYbe (Fab-scFv): 4133 Fab HC-G4S linker-6294 scFv heavy chain paired with 4133 light chain (antibody)
heavy: QEQLVESGGGLVQPEGSLTLTCTASGFSFSGNYYMCWVRQAPGKGLEWIGCLYTGSSGSTYYASWAKGRFTISKTSSTTVTLQMTSLTAADTATYFCARDLGYEIDGYGGLWGQGTLVTVSSGQPKAPSVFPLAPCCGDTPSSTVTLGCLVKGYLPEPVTVTWNSGTLTNGVRTFPSVRQSSGLYSLSSVVSVTSSSQPVTCNVAHPATNTKVDKTVAPSTCSKPGGGGSGGGGSEVQLVESGAELARPGASVKMSCKASGYTFTSYTMHWVKQRPGQCLEWIGYINPSSGYTEYNQKFKDKTTLTADKSSSTAYLQLSSLTSEDSAVYYCARVGDGFYPSWLAYWGQGTLVTVSSGGGGSGGGGSGGGGSGGGGSDIQMTQSPKFLLVSAGDRVTITCKASQSVRNDVAWYQQKPGQSPKLLIFYASKRYTGVPDRFTGSGYGTDFTFTISTVQAEDLAVYFCQQDYSSPTTFGCGTKLEIK
light: AQVLTQTPSPVSAVVGGTVSISCQASQSVYNNNNLSWYQQKPGQPPKLLIYDASKLASGVPSRFKGSGSGTQFTLTISGVQCDDAATYYCLGGYYSSGWYFAFGGGTKVVVKRTPVAPTVLIFPPAADQVATGTVTIVCVANKYFPDVTVTWEVDGTTQTTGIENSKTPQNSADCTYNLSSTLTLTSTQYNSHKEYTCKVTQGTTSVVQSFNRGDC

Tests used:
Type in all cases: cell-based
[1] = system: Dakiki; assay: Apoptosis of cell lines: Dakiki; details: 21 hrs
Source text: (§1) The following cell lines representing various leukaemia's and lymphoma's, as classified by ATCC (www.atcc.org/), were used: Jurkat—acute T-cell leukaemia; CCRF-SB—B-cell acute lymphoblastic leukaemia; MC116—B-cell undifferentiated lymphoma; Raji, Ramos—Burkitt lymphoma (rare form of B-cell non-Hodgkin lymphoma); SU-DHL-4, SU-DHL-5, SU-DHL-8, NU-DUL-1, OCI-Ly3—Diffuse large B-cell lymphoma; THP-1—acute monocytic leukaemia; and Dakiki—B cell nasopharyngeal carcinoma.
(§2) Prior to an assay being performed, 1 vial of each of the above cell lines was thawed in a 37° C. water bath and then added to 20 ml complete media (RPMI 1640+2 mM GlutaMAX+1% Pen/Strep, all previous supplied by Invitrogen, +10% Fetal Bovine Serum (FBS), Sigma Aldrich). Cells were spun (500 g, 5 min, at RT) and re-suspended in 20 ml complete media to wash and spun again. Cells were resuspended in 10 ml complete media and then counted using a ChemoMetec NucleoCounter NC-3000. 6×10^6 cells of each cell line were spun (500 g, 5 min, at RT) and re-suspended in 4.8 ml complete media. 1×10^5 cells in 80 μl were then added to each well of a Corning Costar 96-well, cell culture treated, U-shaped-bottom microplate (cat no. 07-200-95). The plate was rested in a 37° C., 5% CO2 incubator for 2 hrs
(§3) Stocks of 4133-6294 BYbe and NegCtrl BYbe at 2500 nM in complete media were prepared. In a Greiner 96-well non-binding microplate, both reagents were serially diluted in complete media 1 in 5, seven times to produce to form an 8-point dose curve. […] (final well concentrations 500-0.0064 nM) was added to the cells. Each concentration was produced in triplicate. Camptothecin (cat no. C9911-100MG, Sigma Aldrich) and Staurosporine (cat no. 56942-200UL, Sigma Aldrich) were added as positive controls of apoptosis. Both were diluted in complete media and added to the well to produce a final concentration of 5 μM. Additional positive controls included anti-thymocyte globulin (ATG, indicated by FDA for use in conditioning regimens), Rituximab (anti-CD20, indicated by FDA for Non-Hodgkin Lymphoma and Chronic Lymphocytic Leukaemia) and Campath (anti-CD52, indicated by FDA for B-cell Chronic Lymphocytic Leukaemia). Anti-thymocyte globulin, Rituximab and Campath were added to the wells to produce final concentrations of 200 μg/ml, 500 nM and 200 μg/ml, respectively. […]
(§4) Following the incubation, the plates were spun at 500 g, 5 min, RT, the buffer was aspirated with a BioTek ELx405 microplate washer, and the cells were re-suspended in FACS buffer (PBS+1% bovine serum albumin (BSA)+0.1% NaN3+2 mM EDTA, Sigma Aldrich) to wash and then re-spun and buffer was aspirated to leave the cells in 20 μl residual media. […] Cells were analysed using the Bio-Rad ZE5 Cell Analyzer. […]

[2] = system: Human whole blood; assay: T cell count in whole blood at 24 hrs; details: Fab-KD-Fab or BYbe 100 nM, Campath 10 μg/ml, in comparison with PBS- and NegCtrl BYbe-treated wells
Experimental: Human whole blood (Lithium heparin tubes) was taken from one donor (HTA #031219-06) at UCB Pharma Slough, UK according to approved ethical sample collection protocol.
In a Greiner 96-well non-binding microplate, Fab-X and Fab-Y combination 6294-X/4133-Y was added to PBS to give a Fab-KD-Fab concentration of 2000 nM. Similarly, stocks of 4133-6294 BYbe and NegCtrl BYbe were prepared in PBS at 2000 nM. The microplate was incubated for 1 hr at 37° C., 5% CO2. Following the incubation, Fab-KD-Fab and BYbe reagents were then serially diluted in PBS 1 in 5, seven times to produce to form an 8-point dose curve.
12.5 μl of Fab-KD-Fab or BYbe dilution was transferred into Corning Costar 96-well, cell culture treated, U-shaped-bottom microplate (cat no. 07-200-95) and 237.5 μl of whole blood added to each well. Final well concentrations of Fab-KD-Fab or BYbes were 100-0.00128 nM. Campath (clinical grade, diluted from 30 mg/ml stock to 1 mg/ml in PBS, lot number F1002H29) was used as a positive control at a final concentration of 10 μg/ml. Plates were sealed with a gas permeable adhesive seal and plate lids were replaced. […]
Following the incubation with the antibody cocktail, cells were washed twice as outlined above and buffer aspirated to leave the cells in 20 μl residual buffer. […] Cells were analysed live using the Intellicyt iQue Screener PLUS. […]

[3] = system: CCRF-SB; assay: Apoptosis of cell lines: CCRF-SB; details: 21 hrs
Source text: as §1, §2, §3, §4

[4] = system: SU-DHL-8; assay: Apoptosis of cell lines: SU-DHL-8; details: SU-DHL-8, 21 hrs
Source text: as §1, §2, §3, §4

Molecule | Campath mean (%) cell reduction ([1]; 200 μg/ml) [%] | reduction in T cell numbers [2] | Campath mean (%) cell reduction ([3]; 200 μg/ml) [%] | Campath mean (%) cell reduction ([4]; 200 μg/ml) [%] | Bottom (%) level of % cell reduction [1] [%] | Top (%) level of % cell reduction [1] [%] | Bottom (%) level of % cell reduction [3] [%] | Top (%) level of % cell reduction [3] [%] | Bottom (%) level of % cell reduction [4] [%] | Top (%) level of % cell reduction [4] [%]
Campath: anti-CD52, clinical grade, indicated by FDA for B-cell Chronic Lymphocytic Leukaemia; positive control [reference compound] | 8.83 | roughly 8 fold | 24.86 | 7.97 |  |  |  |  |  | 
B1 |  | 5 fold |  |  | 10.88 | 76.37 | 13.95 | 83.40 | -2.97 | 16.77
